Results from article PMC6942045.
pKd: −log10 of the molar value.

target: K63-di-Ub (UniProt P0CG47); assay: ITC

Row | Substance | pKd
1 | Cezanne2 UBA (1-88 aa), GST cleaved (from UniProt Q8TE49 1-88) (domain or fragment) | 4.70
2 | Cezanne UBA (1-66 aa), GST cleaved (from UniProt Q6GQQ9 1-66) (domain or fragment) | 4.70
3 | Rap80 UIMs (60-144 amino acids), GST cleaved (from UniProt Q96RL1 60-144) (domain or fragment) | 5.19
